According to patent publication US20120065136A1 (UNIVERSITY OF ROCHESTER, published 2012):

B1: A1 subunit from Ala108Ile factor VIII (other)
chain: ATRRYYLGAVELSWDYMQSDLGELPVDARFPPRVPKSFPFNTSVVYKKTLFVEFTVHLFNIAKPRPPWMGLLGPTIQAEVYDTVVITLKNMASHPVSLHAVGVSYWKISEGAEYDDQTSQREKEDDKVFPGGSHTYVWQVLKENGPMASDPLCLTYSYLSHVDLVKDLNSGLIGALLVCREGSLAKEKTQTLHKFILLFAVFDEGKSWHSETKNSLMQDRDAASARAWPKMHTVNGYVNRSLPGLIGCHRKSVYWHVIGMGTTPEVHSIFLEGHTFLVRNHRQASLEISPITFLTAQTLLMDLGQFLLFCHISSHQHDGMEAYVKVDSCPEEPQLRMKNNEEAEDYDDDLTDSEMDVVRFDDDNSPSFIQIR
B2: acrylodan-labeled A1 subunit from WT factor VIII (other)
chain: ATRRYYLGAVELSWDYMQSDLGELPVDARFPPRVPKSFPFNTSVVYKKTLFVEFTVHLFNIAKPRPPWMGLLGPTIQAEVYDTVVITLKNMASHPVSLHAVGVSYWKASEGAEYDDQTSQREKEDDKVFPGGSHTYVWQVLKENGPMASDPLCLTYSYLSHVDLVKDLNSGLIGALLVCREGSLAKEKTQTLHKFILLFAVFDEGKSWHSETKNSLMQDRDAASARAWPKMHTVNGYVNRSLPGLIGCHRKSVYWHVIGMGTTPEVHSIFLEGHTFLVRNHRQASLEISPITFLTAQTLLMDLGQFLLFCHISSHQHDGMEAYVKVDSCPEEPQLRMKNNEEAEDYDDDLTDSEMDVVRFDDDNSPSFIQIR
modifications: acrylodan on a free thiol, likely Cys310
notes: A1 subunit purified from thrombin-cleaved, EDTA-treated recombinant B-domainless WT factor VIII (BHK cells), then labelled with acrylodan; also called AcA1 (WT); WT A1 subunit
B3: acrylodan-labeled A1 subunit from Ala108Ile factor VIII (other)
chain: ATRRYYLGAVELSWDYMQSDLGELPVDARFPPRVPKSFPFNTSVVYKKTLFVEFTVHLFNIAKPRPPWMGLLGPTIQAEVYDTVVITLKNMASHPVSLHAVGVSYWKISEGAEYDDQTSQREKEDDKVFPGGSHTYVWQVLKENGPMASDPLCLTYSYLSHVDLVKDLNSGLIGALLVCREGSLAKEKTQTLHKFILLFAVFDEGKSWHSETKNSLMQDRDAASARAWPKMHTVNGYVNRSLPGLIGCHRKSVYWHVIGMGTTPEVHSIFLEGHTFLVRNHRQASLEISPITFLTAQTLLMDLGQFLLFCHISSHQHDGMEAYVKVDSCPEEPQLRMKNNEEAEDYDDDLTDSEMDVVRFDDDNSPSFIQIR
modifications: acrylodan on a free thiol, likely Cys310
notes: A1 subunit purified from thrombin-cleaved, EDTA-treated B-domainless Ala108Ile factor VIII, then labelled with acrylodan; also called AcA1 (Ala108Ile); Ala108Ile A1

Experiments:
[1] = target: T1, A3C1C2 subunit of factor VIII (human, UniProt P00451 1709-2351); assay: cell-based or functional assay
T1 sequence: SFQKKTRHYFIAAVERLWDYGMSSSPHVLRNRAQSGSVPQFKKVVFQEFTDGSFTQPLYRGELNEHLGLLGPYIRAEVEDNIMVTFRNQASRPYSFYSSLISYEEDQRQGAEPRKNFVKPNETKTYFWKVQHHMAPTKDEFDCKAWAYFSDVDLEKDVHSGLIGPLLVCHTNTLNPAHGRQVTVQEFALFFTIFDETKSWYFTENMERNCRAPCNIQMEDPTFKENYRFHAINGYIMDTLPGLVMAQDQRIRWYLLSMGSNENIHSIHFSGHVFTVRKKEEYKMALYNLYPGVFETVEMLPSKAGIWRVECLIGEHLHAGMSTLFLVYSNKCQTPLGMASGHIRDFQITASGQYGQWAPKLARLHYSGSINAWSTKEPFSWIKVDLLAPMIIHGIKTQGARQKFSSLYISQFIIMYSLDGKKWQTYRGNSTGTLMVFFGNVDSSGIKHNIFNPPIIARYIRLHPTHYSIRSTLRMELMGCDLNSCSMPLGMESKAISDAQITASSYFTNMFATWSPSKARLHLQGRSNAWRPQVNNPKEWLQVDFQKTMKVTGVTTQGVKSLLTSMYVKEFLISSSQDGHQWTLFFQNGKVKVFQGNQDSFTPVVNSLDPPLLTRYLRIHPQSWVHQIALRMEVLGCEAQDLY

[2] = target: T1, A3C1C2 subunit of factor VIII; assay: fluorescence titration of acrylodan-labeled A1 (15 nM) with A3C1C2 (0-300 nM), pH 7.4, quadratic fit
Description: (§1) Purified A1 subunit from WT and Ala108Ile factor VIII was labeled with acrylodan by sulfhydryl specific protein modification as previously described (Wakabayashi et al., “Metal Ion-independent Association of Factor VIII Subunits and the Roles of Calcium and Copper Ions for Cofactor Activity and Inter-subunit Affinity,” Biochemistry 40:10293-10300 (2001), which is hereby incorporated by reference in its entirety). A1 (15 nM) from WT or Ala108Ile factor VIII was reconstituted with A3C1C2 subunit (0-300 nM) at 37° C. for 2 h in buffer B at pH 7.4. Fluorescence measurements were performed using an Aminco-Bowman Series 2 Luminescence Spectrometer (Thermo Spectronic, Rochester, N.Y.) at 23° C. at an excitation wavelength of 395 nm (2 nm bandwidth). Fluorescence emission was monitored at 480-490 nm (8 nm bandwidth) and all spectra were corrected for background. Data were fitted to a quadratic equation by non-linear least squares regression and parameter values were obtained.
(§2) To assess the affinity of the Ala108Ile A1 domain for C2 domain, the purified factor VIII variant and WT were treated with thrombin and the A1 subunits were separately purified as described supra. A1 subunits were then reacted with the environment-sensitive fluorescent probe, acrylodan, and these reagents were used to probe binding with the A3C1C2 subunit. […]

[3] = target: T1, A3C1C2 subunit of factor VIII; assay: changes in fluorescence of acrylodan labeled-A1 subunits
Description: as §1, §2

[4] = target: T1, A3C1C2 subunit of factor VIII; assay: fluorescence titration of acrylodan-labeled A1 with A3C1C2
Description: as §1, §2

Binder | fold reduction of decay rate against WT A1 [1] | Kd [2] | fold increase in binding affinity against WT [3] | fold increase in affinity against WT A1 [4]
B1 | 4.6 fold | – | – | –
B2 | – | 88.7 nM | – | –
B3 | – | 24.1 nM | ~3.7 fold | ~4 fold
